According to patent US20250076311A1 (Chugai, published 2025):
Changes are numbered by the printed parent chain. Numbers in names are those of the source. One block for each binder: values may come before it.

Experiments:
[1] = target: T1, cynomolgus monkey FcγRIIIaS extracellular domain with C-terminal His-tag (cynomolgus monkey, UniProt Q8SPW2 21-206 at identity 1.00)); assay: SPR, antibody captured, FcγR analyte
T1 construct: also called cyno FcgRIIIaS; cynoFcγRIIIaS
T1 chain: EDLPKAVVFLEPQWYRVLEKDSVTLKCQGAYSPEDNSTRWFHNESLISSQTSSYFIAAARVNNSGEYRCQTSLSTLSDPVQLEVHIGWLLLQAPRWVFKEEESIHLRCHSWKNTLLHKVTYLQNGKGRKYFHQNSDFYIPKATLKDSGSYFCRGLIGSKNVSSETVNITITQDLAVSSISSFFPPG
Description: (§1) The kinetic analysis of interactions between these antibodies and FcγR was carried out using BIACORE® T200 or BIACORE® 4000 (GE Healthcare). HBS-EP+ (GE Healthcare) was used as the running buffer, and the measurement temperature was set to 25° C. […] After the measurement, the antibody captured on the chip was washed off by allowing reaction with 10 mM glycine-HCl, pH1.5 and 25 mM NaOH so that the chip was regenerated and used repeatedly. The sensorgrams obtained as measurement results were analyzed by the 1:1 Langmuir binding model using the BIACORE® Evaluation Software to calculate the binding rate constant ka (L/mol/s) and dissociation rate constant kd (1/s), and the dissociation constant KD (mol/L) was calculated from these values. […] Regarding such interactions, KD values were calculated using the following 1:1 binding model described in BIACORE® T100 Software Handbook BR1006-48 Edition AE.

[2] = target: T2, cynomolgus monkey FcγRIIb extracellular domain, His-tagged (cynomolgus monkey); assay: SPR (BIACORE), antibody captured, FcγR analyte, 25 C; KD of SG1 divided by KD of variant
T2 construct: also called cyno FcγRIIb; cynoFcgRIIb
T2 chain: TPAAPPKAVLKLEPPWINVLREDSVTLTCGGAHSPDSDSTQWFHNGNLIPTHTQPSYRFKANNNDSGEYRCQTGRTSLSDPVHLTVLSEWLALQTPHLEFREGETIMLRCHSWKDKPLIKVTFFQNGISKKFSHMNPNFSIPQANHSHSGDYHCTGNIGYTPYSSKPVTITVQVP
Description: as §1

[3] = target: T3, cynomolgus monkey FcγRIIIaS extracellular domain, His-tagged (cynomolgus monkey, UniProt Q8SPW2 21-206 at identity 1.00)); assay: as above
T3 construct: also called cyno FcγRIIIaS; cynoFcgRIIIaS
T3 chain: T1 chain
Description: as §1

[4] = target: T1, cynomolgus monkey FcγRIIIaS …; assay: SPR, KD(parent SG1)/KD(variant)
[5] = target: T4, human FcγRIIaH extracellular domain with C-terminal His-tag (human, UniProt P12318 34-217); assay: SPR, KD(parent SG1)/KD(variant)
T4 construct: also called human FcgRIIaH; FcγRIIa (type H)
T4 sequence: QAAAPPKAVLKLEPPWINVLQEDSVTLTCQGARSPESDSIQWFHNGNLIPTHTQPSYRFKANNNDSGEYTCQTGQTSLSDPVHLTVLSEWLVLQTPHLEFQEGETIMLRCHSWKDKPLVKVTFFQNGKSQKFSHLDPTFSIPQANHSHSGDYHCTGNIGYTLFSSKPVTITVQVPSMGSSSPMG

[6] = target: T5, human FcγRIIaR extracellular domain with C-terminal His-tag (human, UniProt P12318 34-217); assay: SPR, KD(parent SG1)/KD(variant)
T5 construct: also called human FcgRIIaR; FcγRIIa (type R)
T5 chain: T4 sequence with H134R

[7] = target: T6, human FcγRIIb extracellular domain with C-terminal His-tag (human, UniProt P31994 43-217); assay: SPR, KD(parent SG1)/KD(variant)
T6 construct: also called human FcgRIIb
T6 sequence: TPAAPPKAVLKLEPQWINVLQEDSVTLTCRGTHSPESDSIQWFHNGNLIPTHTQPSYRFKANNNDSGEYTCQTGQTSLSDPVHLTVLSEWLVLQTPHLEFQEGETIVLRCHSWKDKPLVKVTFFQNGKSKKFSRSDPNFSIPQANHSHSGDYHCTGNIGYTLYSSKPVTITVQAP

[8] = target: T7, cynomolgus monkey FcγRIIa2 extracellular domain with C-terminal His-tag (cynomolgus monkey); assay: SPR (Biacore), antibody captured, FcgR as analyte
T7 construct: also called cyno FcgRIIa2; cynoFcγRIIa2
T7 chain: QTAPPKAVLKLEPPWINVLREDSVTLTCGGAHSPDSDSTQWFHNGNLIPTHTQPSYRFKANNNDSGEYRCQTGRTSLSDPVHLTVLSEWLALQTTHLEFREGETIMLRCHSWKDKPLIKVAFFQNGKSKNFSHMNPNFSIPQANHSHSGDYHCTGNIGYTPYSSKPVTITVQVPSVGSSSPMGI
Description: as §1

[9] = target: T8, human FcγRIIb extracellular domain with C-terminal His-tag (human, UniProt P31994 43-217); assay: SPR (Biacore), KD of SG1 divided by KD of variant
T8 construct: also called human FcgRIIb
T8 sequence: T6 sequence
Description: as §1

[10] = target: T9, human FcγRIIaR extracellular domain, His-tagged (human, UniProt P12318 34-217); assay: SPR Biacore, KD(SG1)/KD(variant)
T9 construct: also called human FcγRIIa (type R); FcgRIIaR; not shown: C-terminal His-tag
T9 chain: T4 sequence with H134R
Description: as §1

[11] = target: T10, human FcγRIIb extracellular domain, His-tagged (human, UniProt P31994 43-217); assay: SPR Biacore, KD(SG1)/KD(variant)
T10 construct: also called FcgRIIb (human); not shown: C-terminal His-tag
T10 sequence: T6 sequence
Description: as §1

Kd [1]: 3.2 µM
B1: MS1032LO06-MY101 (antibody, human IgG1, kappa)
heavy: QVTLKESGPVLVKPTETLTLTCTVSGIDLSHDDISWVRQAPGKGLEWVGIISYAGSTYYASWAKGRLTISKDTSKNQVVLTMTNMDPVDTATYYCARGVPAYSHGGDLWGQGTLVTVSSASTKGPSVFPLAPSSKSTSGGTAALGCLVKDYFPEPVTVSWNSGALTSGVHTFPAVLQSSGLYSLSSVVTVPSSSLGTQTYICNVNHKPSNTKVDKKVEPKSCDKTHTCPPCPAPELLNGPSVFLFPPKPKDTLMISRTPEVTCVVVDVSEEDPEVKFNWYVDGVEVHNAKTKPREEQYNSTYRVVSVLTVLHQDWLNGKEYKCKVSNKALPKPIEKTISKAKGQPREPQVYTLPPSREEMTKNQVSLTCLVKGFYPSDIAVEWESNGQPENNYKTTPMVLDSDGSFFLYSKLTVDKSRWQQGNVFSCSVMHEALHNHYTQKSLSLSP
light: DIVMTQSPATLSLSPGERATLSCTSSQSVYHANWLSWFQQKPGQPPKLLIYWASTLAYGVPSRFSGSGSGTDFTLTISSLQPEDAATYYCAGGYGGGRYAFGQGTKVEIKRTVAAPSVFIFPPSDEQLKSGTASVVCLLNNFYPREAKVQWKVDNALQSGNSQESVTEQDSKDSTYSLSSTLTLSKADYEKHKVYACEVTHQGLSSPVTKSFNRGEC
notes: also called M103205H795-MY101; copies: 2 + 2

KD fold (SG1 = 1) [2]: 1.3 fold
KD fold (SG1 = 1) [3]: 0.2 fold
B2: M103205H795-MY445/M103202L889-SK1 (antibody, human IgG1, kappa, name in EU numbering)
heavy: B1 heavy with P234G, N238T, E270D, M398P
light: B1 light

KD fold (SG1 = 1) [4]: 0.19 fold
KD fold (SG1 = 1) [5]: 1.2 fold
KD fold (SG1 = 1) [6]: 1.1 fold
KD fold (SG1 = 1) [7]: 10.7 fold
B3: MS1032LO19-SG1074 (antibody, name in EU numbering)
heavy: QVQLVESGGGLVQPGGSLRLSCAVSGIDLSHDDISWVRQAPGKGLEWVSIISYAGSTYYASWAKGRLTISKDTSKNQVVLTMTNMDPVDTATYYCARGVPAYSHGGDLWGQGTLVTVSSASTKGPSVFPLAPSSKSTSGGTAALGCLVKDYFPEPVTVSWNSGALTSGVHTFPAVLQSSGLYSLSSVVTVPSSSLGTQTYICNVNHKPSNTKVDKKVEPKSCDKTHTCPPCPAPELLNGPSVFLFPPKPKDTLMISRTPEVTCVVVDVSDEDPEVKFNWYVDGVEVHNAKTKPREELYNSTYRVVSVLTVLHRDWLNGKEYKCKVSNTALPKPIEKTISKAKGQRREPQVYTLPPSREEMTKNQVSLTCLVKGFYPSDIAVEWESNGQPENNYKTTPPVLDSDGSFFLYSKLTVDKSRWQQGNVFSCSVLHEALHAHTTRKELSLSP
light: B1 light with S25T, A32E
notes: tied to rows r15/r33 by row order only; also called MS103240H795-SG1074

KD fold (SG1 = 1) [4]: 0.04 fold
KD fold (SG1 = 1) [6]: 0.1 fold
B4: MS1032LO19-SG1079 (antibody)
heavy: B3 heavy with T328K, R345P, D415K, L430M, T438Y
light: B1 light with S25T, A32E
notes: tied to rows r17/r35 by row order only; also called MS103240H795-SG1079; copies: 2 + 2

KD fold (SG1 = 1) [4]: 0.05 fold
KD fold (SG1 = 1) [5]: 1.5 fold
KD fold (SG1 = 1) [6]: 0.6 fold
KD fold (SG1 = 1) [7]: 5.9 fold
B5: MS1032LO06-SG1029 (antibody, human IgG1, kappa)
heavy: B1 heavy with E270D, Q297L, Q313R, M398P, D415K, N436A
light: B1 light
notes: tied to rows r9/r27 by row order only; also called MS103205H795-SG1029; copies: 2 + 2

KD fold (SG1 = 1) [2]: 2.5 fold
KD fold (SG1 = 1) [3]: 0.2 fold
B6: M103205H795-MY446/M103202L889-SK1 (antibody, human IgG1, kappa, name in EU numbering)
heavy: B1 heavy with P234H, N238T, E270D, M398P
light: B1 light

KD fold (SG1 = 1) [2]: 0.8 fold
KD fold (SG1 = 1) [3]: 0.2 fold
B7: M103205H795-MY448/M103202L889-SK1 (antibody, human IgG1, kappa, name in EU numbering)
heavy: B1 heavy with P234K, N238T, E270D, M398P
light: B1 light

Kd [8]: 1.3 µM
B8: M103205H795-MY516 / M103202L889-SK1 (antibody)
heavy: B1 heavy with N238T, S241V, E270D, Q297L, S300L, M398P
light: B1 light
notes: 'Q235L' copied as printed, probably Q295L

KD fold (SG1 = 1) [4]: 0.17 fold
KD fold (SG1 = 1) [5]: 1.8 fold
KD fold (SG1 = 1) [6]: 1.2 fold
KD fold (SG1 = 1) [7]: 0.7 fold
B9: MS1032LO06-SG1016 (antibody, human IgG1, kappa)
heavy: B1 heavy with Q313R, D401K, N436A
light: B1 light
notes: tied to rows r8/r26 by row order only; also called MS103205H795-SG1016; copies: 2 + 2

KD fold (SG1 = 1) [9]: 4.6 fold
Kd [8]: 1.1 µM
B10: M103205H795-MY524 / M103202L889-SK1 (antibody, human IgG1, kappa, name in EU numbering)
heavy: B1 heavy with A233G, N238T, E270D, Q297L, M398P
light: B1 light

Kd [8]: 1.6 µM
B11: M103205H795-MY389 / M103202L889-SK1 (antibody, human IgG1, kappa, name in EU numbering)
heavy: B1 heavy with N238T, S241L, E270D, M398P
light: B1 light

KD fold (SG1 = 1) [4]: 0.05 fold
KD fold (SG1 = 1) [6]: 1.7 fold
KD fold (SG1 = 1) [7]: 3.2 fold
B12: MS1032LO06-SG1031 (antibody, human IgG1, kappa, name in EU numbering)
heavy: B1 heavy with E270D, Q313R, M398P, D415K, N436A
light: B1 light
notes: tied to rows r10/r28 by row order only; also called MS103205H795-SG1031; copies: 2 + 2

KD fold (SG1 = 1) [10]: 4 fold
KD fold (SG1 = 1) [11]: 5.1 fold
B13: M103205H795-MY012/M103202L889-SK1 (antibody, human IgG1, kappa, name in EU numbering)
heavy: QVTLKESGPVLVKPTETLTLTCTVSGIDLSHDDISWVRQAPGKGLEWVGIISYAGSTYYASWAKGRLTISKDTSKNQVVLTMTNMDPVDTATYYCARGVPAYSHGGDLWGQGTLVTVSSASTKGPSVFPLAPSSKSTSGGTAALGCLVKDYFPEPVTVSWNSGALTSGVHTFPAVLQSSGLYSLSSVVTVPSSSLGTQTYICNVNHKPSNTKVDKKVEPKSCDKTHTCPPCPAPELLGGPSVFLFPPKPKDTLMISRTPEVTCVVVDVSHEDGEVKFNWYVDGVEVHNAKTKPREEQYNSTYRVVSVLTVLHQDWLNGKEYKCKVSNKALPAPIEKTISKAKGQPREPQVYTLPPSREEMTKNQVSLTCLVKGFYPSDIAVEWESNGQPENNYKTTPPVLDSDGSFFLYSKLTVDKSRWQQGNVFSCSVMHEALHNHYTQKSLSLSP
light: B1 light
notes: Substitution introduced into M103205H795-SG1; EU numbering
